The values that follow come from PMC11825297.

The target of the experiment is GST-tagged actin-binding domain of melanophilin (GST-Mlph-ABD), ATTO-488-labeled (UniProt Q91V27). Nature of the experiment: MST; ATTO-488-labeled GST-Mlph-ABD (diluted to 40 nM in MST buffer: 50 mM Tris-HCl pH 7.8, 100 mM NaCl, 10 mM MgCl2, 0.05% Tween-20) mixed 1:1 with a 16-step two-fold dilution series of the His-tagged Myo5a tail from 40 uM in His-tag protein dialysis buffer; Monolith NT.115; three repetitions.
UniProt Q91V27, sequence (Q91V27 401-590): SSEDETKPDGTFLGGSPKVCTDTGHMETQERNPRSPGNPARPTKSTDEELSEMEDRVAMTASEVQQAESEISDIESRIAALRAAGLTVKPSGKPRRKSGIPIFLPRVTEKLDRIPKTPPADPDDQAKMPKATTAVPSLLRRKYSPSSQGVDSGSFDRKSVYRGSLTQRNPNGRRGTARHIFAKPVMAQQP

With “His-tagged middle tail domain of myosin-5a (His-Myo5a-MTD) (from UniProt Q99104 1-1853) (domain or fragment)”, the equilibrium dissociation constant (Kd) was 562 nM.
